Laboratory results reported in US20140363422A1 (IMMUNOQURE, published 2014).
Where two headings read alike, the source gives them in different places.

Experiments:
[1] = biological target: T1, human IL-17F (human, UniProt Q96PD4 31-163); assay: SPR (ProteOn XPR36), antibody captured by anti-human IgG, IL-17F injected
T1 construct: Bought recombinant protein; also called IL-17F (h); interleukin-17F
T1 sequence (looked up): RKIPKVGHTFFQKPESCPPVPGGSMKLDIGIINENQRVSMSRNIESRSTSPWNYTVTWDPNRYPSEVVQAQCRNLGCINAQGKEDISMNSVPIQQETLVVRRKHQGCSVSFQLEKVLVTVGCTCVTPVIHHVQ

[2] = biological target: T1, human IL-17F; assay: ELISA, titration of antibody 9A2 on recombinant human IL17F
[3] = biological target: T2, human IL-22 (human, UniProt Q9GZX6 34-179); assay: SPR (ProteOn XPR36), antibody captured by anti-human IgG (L2), IL-22 injected at 100 to 1.23 nM and buffer
T2 construct: also called IL-22(h); interleukin-22
T2 sequence (looked up): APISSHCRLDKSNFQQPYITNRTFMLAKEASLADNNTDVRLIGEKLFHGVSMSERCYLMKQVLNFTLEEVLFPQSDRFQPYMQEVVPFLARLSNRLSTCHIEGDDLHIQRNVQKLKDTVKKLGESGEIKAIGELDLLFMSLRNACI

[4] = biological target: T1, human IL-17F; assay: EC50 in summary table; assay not named, taken as binding ELISA
[5] = biological target: T1, human IL-17F; assay: cell-based or functional assay
[6] = biological target: T2, human IL-22; assay: SPR (ProteOn XPR36), antibody captured by anti-human IgG (L1), IL-22 injected at 100 to 1.23 nM and buffer
[7] = biological target: T3, IL-17A/IL-17F heterodimer (UniProt Q16552 24-155; Q96PD4 31-163); assay: cell-based or functional assay
T3 sequence (looked up) 1: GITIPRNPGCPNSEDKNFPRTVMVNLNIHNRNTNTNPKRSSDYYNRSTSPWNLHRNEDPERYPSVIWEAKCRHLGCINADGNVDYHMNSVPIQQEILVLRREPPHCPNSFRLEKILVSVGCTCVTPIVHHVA
T3 sequence (looked up) 2: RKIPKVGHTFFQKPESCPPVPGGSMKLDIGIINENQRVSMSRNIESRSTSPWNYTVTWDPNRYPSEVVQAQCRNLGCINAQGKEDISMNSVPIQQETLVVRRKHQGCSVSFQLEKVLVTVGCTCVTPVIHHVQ

[8] = biological target: T2, human IL-22; assay: SPR (ProteOn XPR36), antibody captured by anti-human IgG, IL-22 injected at 100 to 1.23 nM, 1:1 Langmuir fit, mean of two experiments
Experimental: (§1) Data was referenced using the interspot regions of the sensor chip.
(§2) For affinity determination of the antibodies of the present invention SPR measurements were performed using a ProteOn™ XPR36 instrument, according to the instructions of the manufacturer (BIO-RAD; Hercules Calif., USA). First, anti-human IgG was coupled simultaneously on 5 surfaces of the 6×6 interaction array of a GLC sensor chip by EDC/NHS chemistry, no antibody was sixth immobilized on the sixth surface, but the surface was treated with the same activation and deactivation protocol as the other five surfaces. The MABs (ligands) to be tested were injected afterwards into 6 channels of the chip (in the vertical direction) and simultaneously captured at very similar capture efficiency and percentage activity. […] Data was referenced using the interspot regions between the flow channels. […] Binding experiments were repeated twice and data is represented as a mean of two independent experiments.

[9] = biological target: T2, human IL-22; assay: SPR (ProteOn XPR36), antibody captured by anti-human IgG, IL-22 injected at 100 to 1.23 nM, 1:1 Langmuir fit, grouped
Experimental: as §1, §2

[10] = biological target: T2, human IL-22; assay: EC50 in summary table; assay not named, taken as binding ELISA
[11] = biological target: T2, human IL-22; assay: SPR (ProteOn XPR36), antibody captured by anti-human IgG, IL-22 injected at 100 to 1.23 nM, 1:1 Langmuir fit, grouped; remark: listed apart in the source
Experimental: as §1, §2

[12] = biological target: T2, human IL-22; assay: EC50 in summary table; assay not named, taken as binding ELISA; human IL-22 (h)
[13] = biological target: T4, mouse IL-22 (mouse, UniProt Q9JJY9 34-179); assay: EC50 in summary table; assay not named, taken as binding ELISA; murine IL-22 (m)
T4 construct: also called murine IL-22; IL-22(m)
T4 sequence (looked up): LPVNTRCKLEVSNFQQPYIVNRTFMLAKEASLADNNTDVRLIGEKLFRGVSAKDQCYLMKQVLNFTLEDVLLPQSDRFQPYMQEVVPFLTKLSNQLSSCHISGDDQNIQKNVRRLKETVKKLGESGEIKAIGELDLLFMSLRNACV

[14] = biological target: T5, human IL-17A (human, UniProt Q16552 24-155); assay: EC50 in summary table; assay not named, taken as binding ELISA; IL-17A (A)
T5 construct: Bought recombinant protein; also called CTLA-8
T5 sequence (looked up): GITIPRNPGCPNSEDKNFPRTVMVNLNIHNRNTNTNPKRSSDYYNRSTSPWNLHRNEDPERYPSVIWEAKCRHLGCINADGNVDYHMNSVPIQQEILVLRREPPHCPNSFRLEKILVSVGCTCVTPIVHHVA

[15] = biological target: T2, human IL-22; assay: SPR (ProteOn XPR36), antibody captured by anti-human IgG (L3), IL-22 injected at 100 to 1.23 nM and buffer
[16] = biological target: T1, human IL-17F; assay: EC50 in summary table; assay not named, taken as binding ELISA; IL-17F (F)
[17] = biological target: T2, human IL-22; assay: cell-based or functional assay

B1: IL-17F specific antibody 9A2 (antibody, human IgG1, kappa, V domains shown)
VH: EVQLEESGGGLVQPGGSLRLSCAASGFPFSNYEMNWVRQAPGKGLEWISYISVSGGPAHYADSVKGRFTISRDDATKSLFLQMNRLRADDTAVYYCVRREYVTGRNYNYYPYMDVWGTGTTVTVSP
VL: DIQMTQSPSSLSASVGDRVTITCRASQTISDYLNWYQHKPGEAPKLLIYSASTLQRGVPSRFSGSGSGTDFVFTISSLQSDDFATYYCQQTSSTALTFGGGTKVEVKR
notes: also called a-IL17-9A2
[1]
  kon: ~800000 M⁻¹ s⁻¹
[2]
  EC50 (read off the curve): ~0.02 µg/mL
[3]
  binding result: no binding (tested: 100 nM)
[4]
  EC50: 0.003 µg/mL
[5]
  IC50 Neutralization (ng/ml); GRO-alpha production by NCTC 2544 keratinocytes: 45 ng/mL

B2: IL-17F specific antibody 24D3 (antibody, human IgG1, lambda, V domains shown)
VH: EVKLEESGGDLVKPGGSLRLSCVASGFTFGTAWMSWVRQAPGKGLEWVGRISNKDTGGRIDYAAPVRGRFAISRDDSKATLFLQMNSLKTEDTAVYFCTTNFYDVLTGDHVDYWGQGTVVVVSS
VL: SYELTQPPSVSVSPGETARIPCSGETLPKKLVYWYQQKPGQAPVLMIYKDSERPSRISERFSGSNSGTMASLTISGVQAEDEADYYCQTSDSSGVVFGGGTKLTVLG
notes: also called a-IL17-24D3; aIL-17 24D3
[1]
  kon: ~600000 M⁻¹ s⁻¹
[6]
  binding result: no binding (tested: 100 nM)
[4]
  EC50: 0.002 µg/mL
[5]
  IC50 Neutralization (ng/ml); GRO-alpha production by NCTC 2544 keratinocytes: 12 to 22 ng/mL
[7]
  IC50 Neutralization (ng/ml); GRO-alpha production by NCTC 2544 keratinocytes: 6 to 14 ng/mL

B3: IL-22 specific antibody 35G11 (antibody, human IgG4, lambda, V domains shown)
VH: QVQLVQSGSELRRPGASVNISCKASGYGFNTYAMNWVRQAPGQGPEWMGWINTDTGDPTYAQGFTGRFAFFLDTSASTAFLQITRLTGEDTAVYFCARTRNNWNGVYYHYSGLDVWGQGTTVTVSS
VL: QSVLTQPPSASGTPGQTVTISCSGSSPNLGDNYVYWYHQVPGTAPKLLIFRNTQRPSGVTDRFSGSKYGTSASLAISDLRSDDEGDFYCASWDDRLSRLVFGGGTKLTVLG
notes: also called a-IL-22-35G11; aIL-22 35G11
[8]
  Kd: 0.039 nM
[9]
  Kd: 0.0457 nM
  koff: 8.09e-05 s⁻¹
  kon: 1.77e+06 M⁻¹ s⁻¹
[1]
  binding result: no binding (tested: 100 nM to 1.23 nM)
[10]
  EC50: 0.007 µg/mL

B4: IL-22 specific antibody 30G1 (antibody, human IgG1, kappa, V domains shown)
VH: EVQLLESGGGLVQPGGSLRLSCAASGFTFSTYAMSWVRQAPGKGLEWVSTITSSGGATYHADSVKGRLTISRDNSKNTLYLEMNSLRVEDTAVYYCAKDWGRTVYAVIKDLDIWGQGTLVTVSS
VL: EIVMTQSPAILSVSPGERATLSCRASQSVSNYLAWFQQKPGQAPRLLIYDTSKRATGTPARFSGSGSGTDFTLTISSLEPEDFAVYFCQQRSDWPQYTFGQGTKLEIKR
notes: also called aIL-22 30G1
[8]
  Kd: 0.0365 nM
[1]
  binding result: no binding (tested: 100 nM to 1.23 nM)
[11]
  Kd: 0.0352 nM
  koff: 1.55e-05 s⁻¹
  kon: 441000 M⁻¹ s⁻¹
[12]
  EC50: 0.003 µg/mL
[13]
  EC50: 0.015 µg/mL

B5: IL-17F and IL-17A specific antibody 17E3 (antibody, human IgG1, kappa, V domains shown)
VH: QVQLVQSGAEVAKPGASVRLSCKASGFSFIKYYMHWVRQAPGQGLEWMGVIEPTGGGTSSAQKFRDRVTLSRDTSTATVHLEVSRLTLEDTGIYFCVRDSIYCKHGTCHRTVIDAFDIWGQGTAVTVSS
VL: DIQMTQSPSSLSASVGDRVTITCRSSQDIKNDLAWYQQKPGKAPERLIYAASNLQSGVPSRFSGSGSGTEFSLTISGLQPEDFATYYCLQHNSYPLLTFGGGTKVEIKR
notes: also called a-IL17-17E3
[14]
  EC50: 0.824 µg/mL
[15]
  binding result: no binding (tested: 100 nM)
[1]
  kon: ~300000 M⁻¹ s⁻¹
[16]
  EC50: 0.002 µg/mL
[5]
  IC50 Neutralization (ng/ml); GRO-alpha production by NCTC 2544 keratinocytes: 15 ng/mL
[7]
  IC50 Neutralization (ng/ml); GRO-alpha production by NCTC 2544 keratinocytes: 12 ng/mL

B6: IL-22 specific antibody 41D11 (antibody, human IgG1, lambda, V domains shown)
VH: QVQLHESGPGLVKPSETLSVTCSLSGGSISSSSHLWAWIRQPPEKGLEYIGRIHYRGSVSYNPSLKSRAAISVDTAKNQFSLTLSAVTAADTSFYYCARLDMGAIDKWGQGTLVIVSS
V domain: QPVLTQSPSASASLGASIKLTCTLSSGHSNYDIAWHQQQSGKGPRFLMRVNNGGSHNKGDGIPDRFSGSSSGAERYLTISSLQSEDEADYYCQTWGTGTHVFGTG
notes: also called a-IL-22-41D11
[17]
  IC50 Neutralization (ng/ml); IL-10 production by Colo205 cells: 38 ng/mL
[12]
  EC50: 0.005 µg/mL
[13]
  EC50: 0.06 µg/mL

B7: IL-22 specific antibody 51G4 (antibody, human IgG2, lambda, V domains shown)
VH: EVQLVQSGAEVKKPGASVKVSCKTSGYKFALYDIHWVRQAPGQGLEWMGWINAANGDTEYSQKFEGRVTITRDTSATTVYMELNSLTYGDTAVYYCAREEGLYNWFDPWGQGTLVTVSS
VL: SYELTQDPAVSVALGQTVRITCQGDSLRIYYANWYQQKPGQAPVLVIYGKSNRPSGIPDRFSASSSGNTASLTITGAQAEDEADYYCNSRDSSDKHPVPFGGGTKLTVLS
notes: also called a-IL-22-51G4
[10]
  EC50: 0.067 to 0.148 µg/mL
